24 variants from the supplement of paper PMC7125110 can be followed below.

± gives the standard error. This sample holds only a part of the variants without activity.

B1: glmS ribozyme (parent)
chain: AUAAAAGCGCCAGAACUACAGAAAUGUAGUUGACGAGGAGGAGGUUUAUCGAAUUUUCGGCGGAUGCCUCCAAA

Holding throughout (conditions): with glucosamine-6-phosphate
In data set [1] the parent is B1. As to the kind of experiment: self-cleavage kobs at 40 uM GlcN6P; higher = faster cleavage; RNA array. The method in brief: (§1)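 The measurements used barcoded ribozyme variants on sequenced MiSeq chips, transcribed in situ by E. coli RNA polymerase and tracked at 37 °C with a hybridised Cy3 probe. Glucosamine-6-phosphate, 40 μM to 10 mM in HEPES/KCl/Mg(OAc)2 buffer, was flowed in while tiles were imaged over ~14 h. Baseline-normalised signals, also normalised to non-cleaving reference variants, gave per-tile medians that were fit to one- or two-exponential decays for kobs. kcat and KM resulted from weighted Michaelis–Menten fits across concentrations.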

In data set [2] the parent is B1. As to the kind of experiment: self-cleavage kobs at 160 uM GlcN6P; higher = faster cleavage; RNA array. Summed up:
as §1

Data set [3] covers variants of B1. As to the kind of experiment: self-cleavage kobs at 640 uM GlcN6P; higher = faster cleavage; RNA array. Summed up: as §1
Data set [4] covers variants of B1. As to the kind of experiment: self-cleavage kobs at 10000 uM GlcN6P; higher = faster cleavage; RNA array. The method in brief: as §1
Data set [5] covers variants of B1. As to the kind of experiment: self-cleavage kobs at 2500 uM GlcN6P; higher = faster cleavage; RNA array. Summed up:
as §1

As to A33U A48U, the “self-cleavage kobs at 40 uM GlcN6P” value in data set [1] was less than 1e-05 s⁻¹. Further, in data set [2], the “self-cleavage kobs at 160 uM GlcN6P” value is less than 1e-05 s⁻¹. Besides, the “self-cleavage kobs at 640 uM GlcN6P” value in data set [3] was less than 1e-05 s⁻¹. The “self-cleavage kobs at 10000 uM GlcN6P” value in data set [4] is less than 1e-05 s⁻¹.

Consider G9A G44A C67A, for which, in data set [1], the “self-cleavage kobs at 40 uM GlcN6P” value was less than 1e-05 s⁻¹.

Consider A6U G13C C16A U45G, for which the “self-cleavage kobs at 40 uM GlcN6P” value in data set [1] is less than 1e-05 s⁻¹.

Turning to C11A U45G, the “self-cleavage kobs at 40 uM GlcN6P” value in data set [1] was less than 1e-05 s⁻¹. In data set [2], the “self-cleavage kobs at 160 uM GlcN6P” value is less than 1e-05 s⁻¹. Also, the “self-cleavage kobs at 640 uM GlcN6P” value in data set [3] is less than 1e-05 s⁻¹.

Regarding C10U G37U U45A, in data set [1], the “self-cleavage kobs at 40 uM GlcN6P” value was less than 1e-05 s⁻¹.

With G38U G59C, the “self-cleavage kobs at 40 uM GlcN6P” value in data set [1] is less than 1e-05 s⁻¹. For the same variant, in data set [3], the “self-cleavage kobs at 640 uM GlcN6P” value is less than 1e-05 s⁻¹. Further, in data set [5], the “self-cleavage kobs at 2500 uM GlcN6P” value was less than 1e-05 s⁻¹.

Regarding C10A G38U, the “self-cleavage kobs at 40 uM GlcN6P” value in data set [1] was less than 1e-05 s⁻¹. For the same variant, the “self-cleavage kobs at 160 uM GlcN6P” value in data set [2] is less than 1e-05 s⁻¹. The “self-cleavage kobs at 640 uM GlcN6P” value in data set [3] is less than 1e-05 s⁻¹.

In the case of G35A U45A C61A G62C, the “self-cleavage kobs at 40 uM GlcN6P” value in data set [1] was less than 1e-05 s⁻¹.

Consider G7A G66U, for which, in data set [1], the “self-cleavage kobs at 40 uM GlcN6P” value is less than 1e-05 s⁻¹. The “self-cleavage kobs at 160 uM GlcN6P” value in data set [2] was less than 1e-05 s⁻¹. In data set [5], the “self-cleavage kobs at 2500 uM GlcN6P” value is less than 1e-05 s⁻¹. The “self-cleavage kobs at 10000 uM GlcN6P” value in data set [4] was less than 1e-05 s⁻¹.

For U31C U69C, the “self-cleavage kobs at 40 uM GlcN6P” value in data set [1] worked out at 4.67e-05 ± 1.5e-05 s⁻¹. Besides, the “self-cleavage kobs at 160 uM GlcN6P” value in data set [2] worked out at 5.62e-05 ± 1.5e-05 s⁻¹. Besides, the “self-cleavage kobs at 640 uM GlcN6P” value in data set [3] is 0.000232 ± 6.2e-05 s⁻¹. In data set [5], the “self-cleavage kobs at 2500 uM GlcN6P” value is 0.00045 ± 8.2e-05 s⁻¹. For the same variant, in data set [4], the “self-cleavage kobs at 10000 uM GlcN6P” value turned out to be 0.0013 ± 0.00035 s⁻¹.

As for A48C G60U, the “self-cleavage kobs at 40 uM GlcN6P” value in data set [1] is less than 1e-05 s⁻¹. The “self-cleavage kobs at 160 uM GlcN6P” value in data set [2] is less than 1e-05 s⁻¹. Besides, the “self-cleavage kobs at 640 uM GlcN6P” value in data set [3] was less than 1e-05 s⁻¹. Moreover, in data set [5], the “self-cleavage kobs at 2500 uM GlcN6P” value is less than 1e-05 s⁻¹. For the same variant, the “self-cleavage kobs at 10000 uM GlcN6P” value in data set [4] was less than 1e-05 s⁻¹.

With G9U A12U C70U, in data set [1], the “self-cleavage kobs at 40 uM GlcN6P” value was less than 1e-05 s⁻¹.

Regarding G32C U47C, in data set [1], the “self-cleavage kobs at 40 uM GlcN6P” value is less than 1e-05 s⁻¹. The “self-cleavage kobs at 160 uM GlcN6P” value in data set [2] is less than 1e-05 s⁻¹.

As to A12U A52C C58U C71U, the “self-cleavage kobs at 40 uM GlcN6P” value in data set [1] was less than 1e-05 s⁻¹.

In the case of A53C C58A G60U, the “self-cleavage kobs at 40 uM GlcN6P” value in data set [1] is less than 1e-05 s⁻¹.

For the variant G32U U47G U69G, the “self-cleavage kobs at 40 uM GlcN6P” value in data set [1] was 0.000146 ± 3.4e-05 s⁻¹. Moreover, the “self-cleavage kobs at 10000 uM GlcN6P” value in data set [4] came out at 0.000404 ± 7.2e-05 s⁻¹.

As for C34U A53G, the “self-cleavage kobs at 40 uM GlcN6P” value in data set [1] was less than 1e-05 s⁻¹. The “self-cleavage kobs at 10000 uM GlcN6P” value in data set [4] was less than 1e-05 s⁻¹.

Take G32U G63U C71A: the “self-cleavage kobs at 40 uM GlcN6P” value in data set [1] was less than 1e-05 s⁻¹. The “self-cleavage kobs at 640 uM GlcN6P” value in data set [3] was less than 1e-05 s⁻¹. For the same variant, the “self-cleavage kobs at 10000 uM GlcN6P” value in data set [4] was less than 1e-05 s⁻¹.

For G35A U46A, the “self-cleavage kobs at 40 uM GlcN6P” value in data set [1] was less than 1e-05 s⁻¹. The “self-cleavage kobs at 160 uM GlcN6P” value in data set [2] was less than 1e-05 s⁻¹. Besides, in data set [3], the “self-cleavage kobs at 640 uM GlcN6P” value was less than 1e-05 s⁻¹. In data set [5], the “self-cleavage kobs at 2500 uM GlcN6P” value was less than 1e-05 s⁻¹. For the same variant, the “self-cleavage kobs at 10000 uM GlcN6P” value in data set [4] is less than 1e-05 s⁻¹.

Consider C8A C68G, for which, in data set [1], the “self-cleavage kobs at 40 uM GlcN6P” value was determined as 0.000368 ± 0.00014 s⁻¹.

Consider U47G G60U, for which the “self-cleavage kobs at 40 uM GlcN6P” value in data set [1] is less than 1e-05 s⁻¹. In data set [2], the “self-cleavage kobs at 160 uM GlcN6P” value was less than 1e-05 s⁻¹. Besides, in data set [5], the “self-cleavage kobs at 2500 uM GlcN6P” value is less than 1e-05 s⁻¹.

With A53G U54A, the “self-cleavage kobs at 40 uM GlcN6P” value in data set [1] worked out at 0.000851 ± 0.00024 s⁻¹. Besides, the “self-cleavage kobs at 160 uM GlcN6P” value in data set [2] came to 0.00267 ± 0.00057 s⁻¹. For the same variant, the “self-cleavage kobs at 640 uM GlcN6P” value in data set [3] is 0.0083 ± 0.0014 s⁻¹. Moreover, the “self-cleavage kobs at 2500 uM GlcN6P” value in data set [5] came to 0.0106 ± 0.0043 s⁻¹. In data set [4], the “self-cleavage kobs at 10000 uM GlcN6P” value was determined as 0.0724 ± 0.027 s⁻¹.

As to C8U A33G, the “self-cleavage kobs at 40 uM GlcN6P” value in data set [1] is less than 1e-05 s⁻¹. In addition, in data set [2], the “self-cleavage kobs at 160 uM GlcN6P” value is less than 1e-05 s⁻¹. Besides, the “self-cleavage kobs at 640 uM GlcN6P” value in data set [3] was less than 1e-05 s⁻¹. Also, the “self-cleavage kobs at 10000 uM GlcN6P” value in data set [4] was less than 1e-05 s⁻¹.

Regarding G35A G44U U65A C70G, the “self-cleavage kobs at 40 uM GlcN6P” value in data set [1] is less than 1e-05 s⁻¹. For the same variant, the “self-cleavage kobs at 160 uM GlcN6P” value in data set [2] is less than 1e-05 s⁻¹. In data set [5], the “self-cleavage kobs at 2500 uM GlcN6P” value is less than 1e-05 s⁻¹.
